Measured values taken from article PMC3711433, “Differential roles of human Dicer-binding proteins TRBP and PACT in small RNA processing” (Nucleic Acids Research, 2013).
Values belong to the binder of their own block, whether it stands above or below them.

How the values were obtained:
Dicer [1] = target: T1, Dicer (human, UniProt Q9UPY3 1-1922); assay: SEC; gel filtration column chromatography of Dicer with the dsRBP or chimeric dsRBP, reconstituted from purified proteins; details: both partners purified
T1 construct: Dicer, human endoribonuclease; also called endonuclease Dicer
T1 sequence (Q9UPY3 whole entry): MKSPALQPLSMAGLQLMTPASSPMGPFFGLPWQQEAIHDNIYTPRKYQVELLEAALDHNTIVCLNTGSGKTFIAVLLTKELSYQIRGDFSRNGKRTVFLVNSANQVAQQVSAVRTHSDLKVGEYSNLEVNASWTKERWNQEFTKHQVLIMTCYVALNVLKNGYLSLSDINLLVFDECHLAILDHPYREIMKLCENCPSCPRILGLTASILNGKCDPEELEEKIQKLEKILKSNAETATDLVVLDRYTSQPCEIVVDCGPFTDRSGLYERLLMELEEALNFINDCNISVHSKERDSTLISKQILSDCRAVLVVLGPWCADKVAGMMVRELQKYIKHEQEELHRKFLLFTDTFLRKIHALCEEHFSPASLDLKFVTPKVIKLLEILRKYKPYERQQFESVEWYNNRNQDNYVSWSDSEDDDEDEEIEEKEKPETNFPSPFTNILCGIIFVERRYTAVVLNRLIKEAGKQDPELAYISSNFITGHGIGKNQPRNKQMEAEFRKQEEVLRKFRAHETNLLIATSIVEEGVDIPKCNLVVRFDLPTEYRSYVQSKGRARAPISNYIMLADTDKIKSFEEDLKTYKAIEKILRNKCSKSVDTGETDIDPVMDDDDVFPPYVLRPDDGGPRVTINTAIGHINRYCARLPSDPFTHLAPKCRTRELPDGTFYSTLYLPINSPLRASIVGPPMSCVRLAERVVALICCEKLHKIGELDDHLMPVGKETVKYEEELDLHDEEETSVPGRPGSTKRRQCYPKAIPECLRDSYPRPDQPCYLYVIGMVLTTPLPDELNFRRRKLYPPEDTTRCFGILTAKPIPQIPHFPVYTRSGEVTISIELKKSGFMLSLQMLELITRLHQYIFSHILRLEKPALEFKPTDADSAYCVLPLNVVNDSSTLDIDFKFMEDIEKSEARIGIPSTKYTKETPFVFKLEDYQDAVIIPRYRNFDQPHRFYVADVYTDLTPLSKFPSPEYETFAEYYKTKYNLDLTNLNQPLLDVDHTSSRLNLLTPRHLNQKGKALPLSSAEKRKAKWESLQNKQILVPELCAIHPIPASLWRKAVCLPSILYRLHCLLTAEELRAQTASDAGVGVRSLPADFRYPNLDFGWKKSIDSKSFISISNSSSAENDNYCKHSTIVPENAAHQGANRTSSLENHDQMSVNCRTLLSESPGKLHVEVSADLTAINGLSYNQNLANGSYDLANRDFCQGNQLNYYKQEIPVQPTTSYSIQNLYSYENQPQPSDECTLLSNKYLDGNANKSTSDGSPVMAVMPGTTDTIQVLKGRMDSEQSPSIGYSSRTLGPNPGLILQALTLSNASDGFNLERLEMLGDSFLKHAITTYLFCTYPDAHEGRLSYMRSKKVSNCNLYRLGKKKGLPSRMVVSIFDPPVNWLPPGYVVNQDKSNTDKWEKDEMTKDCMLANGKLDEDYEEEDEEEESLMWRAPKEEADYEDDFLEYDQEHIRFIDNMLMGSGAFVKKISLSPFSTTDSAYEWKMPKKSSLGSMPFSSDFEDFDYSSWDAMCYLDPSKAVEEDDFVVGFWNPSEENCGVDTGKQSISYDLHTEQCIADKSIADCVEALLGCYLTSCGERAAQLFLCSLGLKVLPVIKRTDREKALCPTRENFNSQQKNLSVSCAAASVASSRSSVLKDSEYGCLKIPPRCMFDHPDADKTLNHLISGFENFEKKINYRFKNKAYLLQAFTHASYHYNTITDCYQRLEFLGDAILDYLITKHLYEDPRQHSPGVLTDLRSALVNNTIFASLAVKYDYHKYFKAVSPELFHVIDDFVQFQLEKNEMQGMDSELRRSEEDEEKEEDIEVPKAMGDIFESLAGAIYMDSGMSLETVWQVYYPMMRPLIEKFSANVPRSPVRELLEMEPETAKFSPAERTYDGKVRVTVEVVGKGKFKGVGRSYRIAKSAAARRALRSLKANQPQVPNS

TRBP = target: T2, TRBP (human, UniProt Q15633 1-366); assay: EMSA; 0.5 uM dsRNA, up to 1 uM protein; Fig 1B: 20 mM HEPES pH 7.5, 300 mM KCl, 5% glycerol, 1 mM TCEP, on ice 45 min, 6% native PAGE; Fig S5: 20 mM Tris-HCl pH 6.5, 1.5 mM MgCl2, 25 mM NaCl, 1 mM DTT, 1% glycerol, on ice 60 min; details: protein: recombinant
T2 sequence: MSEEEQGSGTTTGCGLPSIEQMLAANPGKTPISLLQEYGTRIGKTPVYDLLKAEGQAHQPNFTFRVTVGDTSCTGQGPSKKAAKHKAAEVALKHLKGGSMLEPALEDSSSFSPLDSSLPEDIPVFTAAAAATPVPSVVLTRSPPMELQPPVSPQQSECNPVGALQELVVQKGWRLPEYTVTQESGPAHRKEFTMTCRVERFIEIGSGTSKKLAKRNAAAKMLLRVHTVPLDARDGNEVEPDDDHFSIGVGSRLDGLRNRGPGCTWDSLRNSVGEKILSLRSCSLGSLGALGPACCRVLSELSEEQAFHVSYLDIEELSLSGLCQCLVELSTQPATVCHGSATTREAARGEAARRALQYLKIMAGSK

Dicer [2] = target: Dicer (human, UniProt Q9UPY3 1-1922); assay: as above; details: protein: recombinant
Target sequence in this assay (Q9UPY3 whole entry): as the sequence (Q9UPY3 whole entry) above

Dicer;PACT = Dicer;PACT (human;human, UniProt Q9UPY3;O75569 1-1922;1-313, |); assay: EMSA; 0.5 uM dsRNA, up to 1 uM complex; shift distinct from PACT alone; Fig 1B: 20 mM HEPES pH 7.5, 300 mM KCl, 5% glycerol, 1 mM TCEP, on ice 45 min, 6% native PAGE; Fig S5: 20 mM Tris-HCl pH 6.5, 1.5 mM MgCl2, 25 mM NaCl, 1 mM DTT, 1% glycerol, on ice 60 min; details: protein: recombinant;recombinant; tags: ;His6-MBP removed by TEV; copies: 1;1
Chain of Dicer;PACT (Q9UPY3 whole entry, one chain of several): as the sequence (Q9UPY3 whole entry) above

Dicer;TRBP = Dicer;TRBP (human;human, UniProt Q9UPY3;Q15633 1-1922;1-366, |); assay: EMSA; 0.5 uM dsRNA, up to 1 uM complex; Fig 1B: 20 mM HEPES pH 7.5, 300 mM KCl, 5% glycerol, 1 mM TCEP, on ice 45 min, 6% native PAGE; Fig S5: 20 mM Tris-HCl pH 6.5, 1.5 mM MgCl2, 25 mM NaCl, 1 mM DTT, 1% glycerol, on ice 60 min; details: protein: recombinant;recombinant; copies: 1;1
Chain of Dicer;TRBP (Q9UPY3 whole entry, one chain of several): as the sequence (Q9UPY3 whole entry) above

Dicer [3] = target: T1, Dicer; assay: native gel or EMSA; dsRNA A (0.5 uM) with 0, 0.5 or 1 uM protein or complex in 20 mM HEPES (pH 7.5), 300 mM KCl, 5% glycerol, 1 mM TCEP, on ice 45 min, 6% native PAGE, SYBR-Gold; the shift by the Dicer-dsRBP complex is compared with that by the dsRBP alone; details: both partners purified

B1: T12P3 (other, human, UniProt Q15633 1-232, looked up)
chain: MSEEEQGSGTTTGCGLPSIEQMLAANPGKTPISLLQEYGTRIGKTPVYDLLKAEGQAHQPNFTFRVTVGDTSCTGQGPSKKAAKHKAAEVALKHLKGGSMLEPALEDSSSFSPLDSSLPEDIPVFTAAAAATPVPSVVLTRSPPMELQPPVSPQQSECNPVGALQELVVQKGWRLPEYTVTQESGPAHRKEFTMTCRVERFIEIGSGTSKKLAKRNAAAKMLLRVHTVPLDAPENHISLTNVVGHSLGCTWHSLRNSPGEKINLLKRSLLSIPNTDYIQLLSEIAKEQGFNITYLDIDELSANGQYQCLAELSTSPITVCHGSGISCGNAQSDAAHNALQYLKIIAERK
notes: TRBP, human, residues 1-232 (dsRBD1, linker, dsRBD2); PACT, human, residues 197-313 (with dsRBD3); purified by the PACT method, which removes His6-MBP by TEV cleavage; also called chimeric protein T12P3; source: purified (HiTrap-Q flow-through, HiTrap-SP, then as PACT)
binding result (Dicer [1]): binds

B2: dsRNA A (dsRNA)
RNA 1: UGGCCUUGGGCAACGGUAAUU
RNA 2: UUACCGUUGCCCAAGGCCAUU
binding result (TRBP): binds
binding result (Dicer [2]): no binding
binding result (Dicer;PACT): binds
binding result (Dicer;TRBP): binds

Continued, values first:

binding result (Dicer [1]): binds
B3: protein activator of PKR (PACT) (natural protein, human, UniProt O75569 1-313, looked up)
chain: MSQSRHRAEAPPLEREDSGTFSLGKMITAKPGKTPIQVLHEYGMKTKNIPVYECERSDVQIHVPTFTFRVTVGDITCTGEGTSKKLAKHRAAEAAINILKANASICFAVPDPLMPDPSKQPKNQLNPIGSLQELAIHHGWRLPEYTLSQEGGPAHKREYTTICRLESFMETGKGASKKQAKRNAAEKFLAKFSNISPENHISLTNVVGHSLGCTWHSLRNSPGEKINLLKRSLLSIPNTDYIQLLSEIAKEQGFNITYLDIDELSANGQYQCLAELSTSPITVCHGSGISCGNAQSDAAHNALQYLKIIAERK
notes: called full-length; the chimeras' limits run to residue 313; source: purified (TEV cleavage, HiTrap-SP, Superdex-200)

binding result (Dicer [3]): binds
B4: trans-activation response RNA-binding protein (TRBP) (natural protein, human, UniProt Q15633 1-366, looked up)
chain: MSEEEQGSGTTTGCGLPSIEQMLAANPGKTPISLLQEYGTRIGKTPVYDLLKAEGQAHQPNFTFRVTVGDTSCTGQGPSKKAAKHKAAEVALKHLKGGSMLEPALEDSSSFSPLDSSLPEDIPVFTAAAAATPVPSVVLTRSPPMELQPPVSPQQSECNPVGALQELVVQKGWRLPEYTVTQESGPAHRKEFTMTCRVERFIEIGSGTSKKLAKRNAAAKMLLRVHTVPLDARDGNEVEPDDDHFSIGVGSRLDGLRNRGPGCTWDSLRNSVGEKILSLRSCSLGSLGALGPACCRVLSELSEEQAFHVSYLDIEELSLSGLCQCLVELSTQPATVCHGSATTREAARGEAARRALQYLKIMAGSK
notes: called full-length; the chimeras' limits run to residue 366; removal of His6-MBP after TEV cleavage on a Ni-NTA column is told by comparison with the PACT purification
